These results are taken from US20180222996A1 (SCOTT AND WHITE HEALTHCARE SWH, published 2018).

This experiment has as its target T1, Human CD123 on stably transfected CHO-K1 cells (CHO-CD123) (human, UniProt P26951 19-378).
T1 construct: whole, on cells; also called IL-3 receptor alpha subunit; cell surface CD123
Nature of the experiment: flow cytometry on CHO-CD123 cells, 1 µg/ml. Here is the method:
Log phase growing monolayer cells were harvested with trypsin/EDTA solution (ATCC) and washed once with culture media and once with PBS containing 1% BSA. 1×10⁶ cells were resuspended in 200 μl staining solution (PBS, 1% BSA, 3% normal goat serum and indicated concentration of 12F1, 12F1scFv-Fc or CD123xCD3 BIf) at room temperature for 1 hour. Human IgG1 (Sigma) was used as a control. Cells were rinsed twice with PBS containing 1% BSA and incubated with PE-conjugated goat anti-human or anti-mouse antibody (Jackson Lab) at room temperature for 1 hour. Cells were thrice washed with PBS containing 1% BSA, resuspended in 500 μl of PBS and analyzed on a Beckman Coulter Cytomic FC 500 flow cytometry.
The abilities of 12F1scFv-Fc and CD123xCD3 BIf to bind cell surface CD123 were examined by flow cytometry using CHO-K1 and CHO-CD123. 12F1 murine monoclonal antibody was used as a positive control. […] The binding affinities were tested in cell-based ELISA with CHO-CD123 cells.
For orientation: In flow cytometry, cells or beads pass a laser one at a time.

T1 sequence (P26951 19-378): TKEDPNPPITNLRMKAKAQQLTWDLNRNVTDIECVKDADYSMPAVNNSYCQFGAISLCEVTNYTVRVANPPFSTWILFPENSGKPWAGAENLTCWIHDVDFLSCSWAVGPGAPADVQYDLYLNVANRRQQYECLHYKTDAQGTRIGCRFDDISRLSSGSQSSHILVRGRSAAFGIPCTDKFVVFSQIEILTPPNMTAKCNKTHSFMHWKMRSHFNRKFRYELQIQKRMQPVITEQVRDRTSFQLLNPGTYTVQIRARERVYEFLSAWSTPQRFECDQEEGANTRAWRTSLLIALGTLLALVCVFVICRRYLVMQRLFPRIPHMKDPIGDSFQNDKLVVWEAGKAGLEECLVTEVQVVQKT

B1: 12F1 murine anti-human CD123 monoclonal antibody (antibody, V domains shown)
VH: VQLQESGPGLVKPSQSLSLTCSVTDYSITSGYYWNWIRQFPGNKLEWMGYISYDGSNNYNPSLKNRISITRDTSKNQFFLKLSSVTTEDTATYYCSRGEGFYFDSWGQGTTLTVSS
VL: DIMMSQSPSSLAVSVGEKFTMTCKSSQSLFFGSTQKNYLAWYQQKPGQSPKLLIYWASTRESGVPDRFTGSGSGTDFTLAISSVMPEDLAVYYCQQYYNYPWTFGGGTKLEIK
notes: Murine monoclonal antibody from hybridoma
B1: the binding result is “binds”.
